Series [1] deals with the molecule itself. In words: SEC; Superdex 200 column, 20 mM Tris-HCl pH 7.5, 150 mM NaCl, 1 mM DTT, 0.5% NP-40, 1 ml/min; mass estimated from standard proteins.
Series [2] deals with the molecule itself. In words: cross-linking; 3, 5 or 10 ug of purified rhGFAT2-his in PBS with 1 mM EGS, 30 min, room temperature; stopped with 30 mM Tris-HCl pH 8.0; gradient SDS-PAGE, Coomassie staining.

Results on one protein are retold here after paper PMC7948480, “Enzymatic and structural properties of human glutamine:fructose-6-phosphate amidotransferase 2 (hGFAT2)” (The Journal of Biological Chemistry, 2020).

B1: recombinant human glutamine:fructose-6-phosphate amidotransferase 2 with a C-terminal 6xHisTag (rhGFAT2-his) (enzyme, UniProt O94808 2-682, looked up)
chain: CGIFAYMNYRVPRTRKEIFETLIKGLQRLEYRGYDSAGVAIDGNNHEVKERHIQLVKKRGKVKALDEELYKQDSMDLKVEFETHFGIAHTRWATHGVPSAVNSHPQRSDKGNEFVVIHNGIITNYKDLRKFLESKGYEFESETDTETIAKLIKYVFDNRETEDITFSTLVERVIQQLEGAFALVFKSVHYPGEAVATRRGSPLLIGVRSKYKLSTEQIPILYRTCTLENVKNICKTRMKRLDSSACLHAVGDKAVEFFFASDASAIIEHTNRVIFLEDDDIAAVADGKLSIHRVKRSASDDPSRAIQTLQMELQQIMKGNFSAFMQKEIFEQPESVFNTMRGRVNFETNTVLLGGLKDHLKEIRRCRRLIVIGCGTSYHAAVATRQVLEELTELPVMVELASDFLDRNTPVFRDDVCFFISQSGETADTLLALRYCKDRGALTVGVTNTVGSSISRETDCGVHINAGPEIGVASTKAYTSQFISLVMFGLMMSEDRISLQNRRQEIIRGLRSLPELIKEVLSLEEKIHDLALELYTQRSLLVMGRGYNYATCLEGALKIKEITYMHSEGILAGELKHGPLALIDKQMPVIMVIMKDPCFAKCQNALQQVTARQGRPIILCSKDDTESSKFAYKTIELPHTVDCLQGILSVIPLQLLSFHLAVLRGYDVDFPRNLAKSVTVE
notes: human glutamine:fructose-6-phosphate amidotransferase 2 (hGFAT2), product of the gfpt2 gene; The His tag comes from pET23a after the NotI site; Mostly a tetramer by SEC, with higher oligomers up to octamers; also called rhGFAT-his; source: E. coli Codon plus, soluble fraction, purified (Ni-NTA HisTrap column); not shown: His6, C-terminal, kept
Consider B1, for which the results for the “stoichiometry N” value in series [1] and in series [2] were not above 8 and 4, respectively.
